These results are taken from patent US5227469A, “Platelet aggregation inhibitors from the leech” (Genentech, Inc., priority 1990, dated 1993).

The target of assay [1] is glycoprotein IIb IIIa (GP IIb IIIa), purified from outdated human platelets (human) (UniProt P08514). Kind of assay: Fg/GP IIb IIIa ELISA, dilution of the 0.085 mg/ml fraction giving a half maximal response.
For assay [2] the target is unchanged. As to the kind of experiment: Fg/GP IIb-IIIa solid phase ELISA.
Assay [3] has the same target. Kind of assay: Fg/GP IIb IIIa ELISA units per mg protein.
Assay [4] has the same target. As to the kind of experiment: GP IIb IIIa/Fg ELISA, IC50 against the reference GRGDV.
The target is the same in assay [5]. As to the kind of experiment: Fg/GP IIb IIIa solid phase ELISA, inhibition of GP IIb IIIa binding to immobilized fibrinogen.
Assay [6] concerns the target GP IIb IIIa on human platelets (platelet rich plasma) (human) (UniProt P08514).

kistrin, sequence (P30403 408-475 limits assumed): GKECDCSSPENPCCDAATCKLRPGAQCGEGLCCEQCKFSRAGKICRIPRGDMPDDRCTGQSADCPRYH

As to ornatin E, the half maximal dilution in assay [1] turned out to be 3610. The same substance showed an IC50 in assay [2] of 4.5 nM. Moreover, in assay [3], the specific activity (U/mg) stood at 42400 U/mg.

In assay [4], decorsin gave a times more potent than GRGDV of 27 fold. This substance also had an IC50 in assay [5] of 1.5 nM.

Substance kistrin (from UniProt P30403) returned an IC50 (nM), human platelet aggregation assay (ADP activation) in assay [6] of 137 nM. Moreover, the IC50 in assay [2] is 4.6 nM.
